Measurements: US20210317209A1 (University of Texas, published 2021)

Assays:
[1] = target: T1, recombinant human CD79b protein (human, UniProt P40259 29-159, limits assumed); assay: Octet assay
T1 sequence (looked up): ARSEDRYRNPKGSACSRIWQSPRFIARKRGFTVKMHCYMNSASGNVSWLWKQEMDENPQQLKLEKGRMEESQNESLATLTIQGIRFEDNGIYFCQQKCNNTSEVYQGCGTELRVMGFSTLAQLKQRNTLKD

[2] = target: T1, recombinant human CD79b protein; assay: column EC50(ng/ml) of the drawn table; the table names no assay, the filing's only titration is the ELISA on recombinant human CD79b protein of FIG. 2B
[3] = target: T1, recombinant human CD79b protein; assay: ELISA on recombinant human CD79b protein

B1: anti-human CD79b monoclonal antibody clone 14 (IgG1) (antibody, V domains shown)
VH: EVQLQESGPELKKPGETVKISCKASGYTFTDYSMHWVKQAPGKGLKWMGWINTETGEPTYADDFKGRFAFSLETSASTAYLQINNLKNDDTATYFCNMDSWGQGTSVTVSS
VL: QIVLTQSPAIMSASPGEKVTMTCSASSSVSYMWWYHQKPGSSPRLLIFDTSNLASGVPVRFSGSGSGTSYSLTISRMEAEDAATYYCQQWTSYPYTFGGGTKLEIK
notes: Murine hybridoma antibody, IgG1; It was conjugated with a fluorochrome for cell staining
- Kd [1]: 1.44 nM
- EC50 [2]: 0.0162 µg/mL
- EC50 (read off the curve) [3]: ~0.02 µg/mL
